Experimental data reported in paper PMC12457548, “Comparative Characterization of Plasmodium falciparum Small Heat Shock Proteins and Their Inhibition by Quercetin (3,3′,4′,5,7-Pentahydroxyflavone)” (The Protein Journal, 2025).

T1: PfHsp20b (Plasmodium falciparum, UniProt Q8IB02)
T1 construct: gene PF3D7_0816500; full-length, residues 1–173, N-terminal 6xHis
T1 sequence (Q8IB02 1-172): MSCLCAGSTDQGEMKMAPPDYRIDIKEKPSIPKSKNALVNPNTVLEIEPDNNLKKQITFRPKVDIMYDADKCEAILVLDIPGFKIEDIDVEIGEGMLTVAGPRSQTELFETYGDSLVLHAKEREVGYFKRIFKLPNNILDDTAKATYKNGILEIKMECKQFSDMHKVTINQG

B1: PfHsp20c (natural protein, Plasmodium falciparum, UniProt Q8I5T9 1-231, looked up)
chain: MSTTNILKPKIIIESSKEQGVGEKRSSTLSAPFEKNMFSTYSYSNPISNMRSSTHNEYKYNWTKYVNSSQIPHVDEYIKTFEGPNTTYYYETIPLKTNTNNIFEITPSQEELSRISYNPKIEIYSTCDFAVLMMDIPGVSKENLKVELEKGLLKVYGNKYKPHIEELEKRNEYHTKIIERLNEYYFCKIFQMPPAFSEGQNISCKLNNGELLVKILANELKTQKKVIDIQS
notes: Codon-harmonised synthetic gene in pQE30 between BamHI and HindIII; forms large oligomers in solution by DLS; also called PF3D7_1211100; P. falciparum Hsp20; source: E. coli XL1 Blue, purified (IMAC)
B2: PfHsp20b (natural protein, Plasmodium falciparum, UniProt Q8IB02 1-172, looked up)
chain: T1 sequence (Q8IB02 1-172)
notes: Codon-harmonised synthetic gene in pQE30 between BamHI and HindIII; forms oligomers in solution by DLS; also called PF3D7_0816500; P. falciparum Hsp20; source: E. coli XL1 Blue, purified (IMAC)
B3: PfHsp20a (natural protein, Plasmodium falciparum, UniProt Q8IES0 1-211, looked up)
chain: MSENNLSKDNNKNKRNEALENAGMLDTFFESMYDHMNRLDQYHSDMNRMMNSLRGYYMNNDFFRFFPNRRSLTDYDINRNRNHDLLLSKPFSSMFRRDGYSNVPAMDVLDKEKHLEIKMDVPGLNKEDVQINLDDGKLEISGEFKKSHEQKDEQQRYYIKERCESSFYRSFTLPENVSEDEIKATFKDGVLKIDIPKKDIPDKKKKKIEID
notes: Codon-harmonised synthetic gene in pQE30 between BamHI and HindIII; forms large oligomers in solution by DLS; also called PF3D7_1304500; P. falciparum Hsp20; source: E. coli XL1 Blue, purified (IMAC)

How the values were obtained:
[1] = target: T2, PfHsp20a (Plasmodium falciparum, UniProt Q8IES0); assay: inhibition of chaperone activity (suppression of heat-induced MDH/CS aggregation); CD, DSF and DLS shifts also measured; format: biochemical
T2 construct: gene PF3D7_1304500; full-length, residues 1–211, N-terminal 6xHis

[2] = target: T1, PfHsp20b; assay: as above; format: biochemical
[3] = target: T3, PfHsp20c (Plasmodium falciparum, UniProt Q8I5T9); assay: as above; format: biochemical
T3 construct: gene PF3D7_1211100; full-length, residues 1–231, N-terminal 6xHis

[4] = target: the molecule itself; assay: dynamic light scattering; as a1 but in the presence of 3 uM quercetin; 20 mM Tris pH 7.4, 300 mM NaCl, 25 °C; oligomer size estimated from the hydrodynamic radius
[5] = target: the molecule itself; assay: dynamic light scattering; 0-6 uM protein alone in 20 mM Tris pH 7.4, 300 mM NaCl, 25 °C; oligomer size estimated from the average hydrodynamic radius with the fluidic webserver

Row | Molecule | IC50 [1] | IC50 [2] | IC50 [3] | stoichiometry N [4] | stoichiometry N [5]
1 | O=c1c(O)c(-c2ccc(O)c(O)c2)oc2cc(O)cc(O)c12 [quercetin, 3,3′,4′,5,7-pentahydroxyflavone] | 320 ± 110 nM | 550 ± 100 nM | 110 ± 70 nM | – | –
2 | B1 | – | – | – | 35 | –
3 | B2 | – | – | – | 37 | ~38
4 | B3 | – | – | – | 40 | –
